Molecular target: full-length 13-lined ground squirrel TRPV1 (13-lined ground squirrel (Ictidomys tridecemlineatus))
Experiment: cryo-EM structure; purified sqTRPV1 in 150 mM NaCl, 20 mM Tris pH 8.0, 1 mM βME, 0.01% GDN; apo, with 50 μM RTX or with 300 μM capsaicin

Q: With “full-length 13-lined ground squirrel TRPV1 (natural protein)” as the substance, how does the stoichiometry N read?
A: Its stoichiometry N is 4 subunits.

Source: PMC8041747
